According to patent US20190241648A1 (STATEN BIOTECHNOLOGY B V, published 2019):
Ends that are not written are not given here.

Columns and labels:
Test in all cases: peptide microarray
ApoC3 peptide … T44F = target: T1, ApoC3 peptide … T44F (human, not fully specified (bridges); also: cyclic constrained)
T1 peptide: ARGWVFDGFSSLK
Procedure, shortened: (§1)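 Peptide microarrays of ApoC3-derived peptides incubated with antibody samples, then stained with goat anti-human IgG (Fc) DyLight680 (1:5000) and anti-HA DyLight800 (1:2000) control. Read-out by fluorescence scanning at intensities 7/7 (red/green); a secondary-only pre-stain checked background, HA frame peptides served as quality control.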

ApoC3 peptide … R40S = target: T2, ApoC3 peptide … R40S (human, not fully specified (bridges); also: cyclic constrained)
T2 peptide: ASGWVTDGFSSLK
Procedure, shortened: as §1

ApoC3 peptide … G46C = target: T3, ApoC3 peptide … G46C (human, also: cyclic constrained)
T3 peptide: ARGWVTDCFSSLK
Procedure, shortened: as §1

ApoC3 peptide … R40D = target: T4, ApoC3 peptide … R40D (human, not fully specified (bridges); also: cyclic constrained)
T4 peptide: ADGWVTDGFSSLK
Procedure, shortened: as §1

ApoC3 peptide … A39T = target: T5, ApoC3 peptide … A39T (human, not fully specified (bridges); also: cyclic constrained)
T5 peptide: TRGWVTDGFSSLK
Procedure, shortened: as §1

ApoC3 peptide … L50F = target: T6, ApoC3 peptide … L50F (human, not fully specified; cyclic constrained)
T6 peptide: ARGWVTDGFSSFK
Procedure, shortened: as §1

ApoC3 peptide … D45E = target: T7, ApoC3 peptide … D45E (human, not fully specified (bridges); also: cyclic constrained)
T7 peptide: ARGWVTEGFSSLK
Procedure, shortened: as §1

ApoC3 peptide … G46V = target: T8, ApoC3 peptide … G46V (human, thioether (positions not given here); also: cyclic constrained)
T8 peptide: ARGWVTDVFSSLK
Procedure, shortened: as §1

ApoC3 peptide … G41S = target: T9, ApoC3 peptide … G41S (human, also: cyclic constrained)
T9 peptide: ARSWVTDGFSSLK
Procedure, shortened: as §1

ApoC3 peptide … A39P = target: T10, ApoC3 peptide … A39P (human, cyclic constrained)
T10 peptide: PRGWVTDGFSSLK
Procedure, shortened: as §1

ApoC3 peptide … K51L = target: T11, ApoC3 peptide … K51L (human, not fully specified; cyclic constrained)
T11 peptide: ARGWVTDGFSSLL
Procedure, shortened: as §1

ApoC3 peptide … A39H = target: T12, ApoC3 peptide … A39H (human, cyclic constrained)
T12 peptide: HRGWVTDGFSSLK
Procedure, shortened: as §1

ApoC3 peptide … S49E = target: T13, ApoC3 peptide … S49E (human, cyclic constrained)
T13 peptide: ARGWVTDGFSELK
Procedure, shortened: as §1

ApoC3 peptide … T44N = target: T14, ApoC3 peptide … T44N (human, not fully specified (bridges); also: cyclic constrained)
T14 peptide: ARGWVNDGFSSLK
Procedure, shortened: as §1

ApoC3 peptide … T44I = target: T15, ApoC3 peptide … T44I (human, not fully specified (bridges); also: cyclic constrained)
T15 peptide: ARGWVIDGFSSLK
Procedure, shortened: as §1

ApoC3 peptide … F47Q = target: T16, ApoC3 peptide … F47Q (human, not fully specified (bridges); also: cyclic constrained)
T16 peptide: ARGWVTDGQSSLK
Procedure, shortened: as §1

ApoC3 peptide … S48Q = ApoC3 peptide … S48Q (human, cyclic constrained)
Procedure, shortened: as §1

ApoC3 peptide … G41H = target: T17, ApoC3 peptide … G41H (human, also: cyclic constrained)
T17 peptide: ARHWVTDGFSSLK
Procedure, shortened: as §1

ApoC3 peptide … D45W = target: T18, ApoC3 peptide … D45W (human, cyclic constrained)
T18 peptide: ARGWVTWGFSSLK
Procedure, shortened: as §1

ApoC3 peptide … D45Y = target: T19, ApoC3 peptide … D45Y (human, not fully specified (bridges); also: cyclic constrained)
T19 peptide: ARGWVTYGFSSLK
Procedure, shortened: as §1

ApoC3 peptide … F47R = target: T20, ApoC3 peptide … F47R (human, also: cyclic constrained)
T20 peptide: ARGWVTDGRSSLK
Procedure, shortened: as §1

ApoC3 peptide … G46W = target: T21, ApoC3 peptide … G46W (human, thioether (positions not given here); also: cyclic constrained)
T21 peptide: ARGWVTDWFSSLK
Procedure, shortened: as §1

ApoC3 peptide … S49G = target: T22, ApoC3 peptide … S49G (human, cyclic constrained)
T22 peptide: ARGWVTDGFSGLK
Procedure, shortened: as §1

ApoC3 peptide … V43N = target: T23, ApoC3 peptide … V43N (human, not fully specified; cyclic constrained)
T23 peptide: ARGWNTDGFSSLK
Procedure, shortened: as §1

ApoC3 peptide … L50D = target: T24, ApoC3 peptide … L50D (human, not fully specified; cyclic constrained)
T24 peptide: ARGWVTDGFSSDK
Procedure, shortened: as §1

ApoC3 peptide … W42I = target: T25, ApoC3 peptide … W42I (human, not fully specified (bridges); also: cyclic constrained)
T25 peptide: ARGIVTDGFSSLK
Procedure, shortened: as §1

ApoC3 peptide … S48M = ApoC3 peptide … S48M (human, cyclic constrained)
Procedure, shortened: as §1

ApoC3 peptide … F47H = target: T26, ApoC3 peptide … F47H (human, not fully specified (bridges); also: cyclic constrained)
T26 peptide: ARGWVTDGHSSLK
Procedure, shortened: as §1

ApoC3 peptide … A39Q = target: T27, ApoC3 peptide … A39Q (human, not fully specified (bridges); also: cyclic constrained)
T27 peptide: QRGWVTDGFSSLK
Procedure, shortened: as §1

ApoC3 peptide … T44V = target: T28, ApoC3 peptide … T44V (human, not fully specified (bridges); also: cyclic constrained)
T28 peptide: ARGWVVDGFSSLK
Procedure, shortened: as §1

ApoC3 peptide … S49H = target: T29, ApoC3 peptide … S49H (human, cyclic constrained)
T29 peptide: ARGWVTDGFSHLK
Procedure, shortened: as §1

B1: anti-ApoC3 antibody 14C7 (antibody, V domains shown)
VH: QVQVQESGPGLVKPSQTLSLTCTVSGGSITTNSYYWSWIRQPPGKGLEWMGAIDYSGDTYYSPSLKSRTSISRDTSKNQFTLQLTSVTPEDTAVYYCVSRIPTGEYWGQGTQVTVSS
VL: QTVVTQEPSLSVSPGGTVTLTCGLNSGSVTSSNYPDWYQQTPGQAPRLLIYNTNSRHSGVPSRFSGSISGNKAALTITGAQPEDEADYYCALYMGSDSVVFGGGTHLTVL
notes: it was detected with goat anti-human IgG (Fc); also called mAb 14C7; llama antibody 14C7
ApoC3 peptide … T44F
  % of binding to wild-type peptide: 0%
ApoC3 peptide … R40S
  % of binding to wild-type peptide: 54.7%
ApoC3 peptide … G46C
  % of binding to wild-type peptide: 0%
ApoC3 peptide … R40D
  % of binding to wild-type peptide: 50%
ApoC3 peptide … A39T
  % of binding to wild-type peptide: 88.7%
ApoC3 peptide … L50F
  % of binding to wild-type peptide: 56.6%
ApoC3 peptide … D45E
  % of binding to wild-type peptide: 40%
ApoC3 peptide … G46V
  % of binding to wild-type peptide: 0%
ApoC3 peptide … G41S
  % of binding to wild-type peptide: 18.7%
ApoC3 peptide … A39P
  % of binding to wild-type peptide: 166%
ApoC3 peptide … K51L
  % of binding to wild-type peptide: 0.33%
ApoC3 peptide … A39H
  % of binding to wild-type peptide: 69.4%
ApoC3 peptide … S49E
  % of binding to wild-type peptide: 0%
ApoC3 peptide … T44N
  % of binding to wild-type peptide: 2.49%
ApoC3 peptide … T44I
  % of binding to wild-type peptide: 1.86%
ApoC3 peptide … F47Q
  % of binding to wild-type peptide: 0%
ApoC3 peptide … S48Q
  % of binding to wild-type peptide: 46.8%
ApoC3 peptide … G41H
  % of binding to wild-type peptide: 23.1%
ApoC3 peptide … D45W
  % of binding to wild-type peptide: 0.06%
ApoC3 peptide … D45Y
  % of binding to wild-type peptide: 0%
ApoC3 peptide … F47R
  % of binding to wild-type peptide: 0%
ApoC3 peptide … G46W
  % of binding to wild-type peptide: 0%
ApoC3 peptide … S49G
  % of binding to wild-type peptide: 0%
ApoC3 peptide … V43N
  % of binding to wild-type peptide: 1.36%
ApoC3 peptide … L50D
  % of binding to wild-type peptide: 0%
ApoC3 peptide … W42I
  % of binding to wild-type peptide: 27.9%
ApoC3 peptide … S48M
  % of binding to wild-type peptide: 121%
ApoC3 peptide … F47H
  % of binding to wild-type peptide: 0%
ApoC3 peptide … A39Q
  % of binding to wild-type peptide: 104%
ApoC3 peptide … T44V
  % of binding to wild-type peptide: 4.26%
ApoC3 peptide … S49H
  % of binding to wild-type peptide: 0.56%
